The text below walks through data of US6946256.

This data set has as its target T1, TAp63γ (UniProt Q9H3D4).
T1 sequence: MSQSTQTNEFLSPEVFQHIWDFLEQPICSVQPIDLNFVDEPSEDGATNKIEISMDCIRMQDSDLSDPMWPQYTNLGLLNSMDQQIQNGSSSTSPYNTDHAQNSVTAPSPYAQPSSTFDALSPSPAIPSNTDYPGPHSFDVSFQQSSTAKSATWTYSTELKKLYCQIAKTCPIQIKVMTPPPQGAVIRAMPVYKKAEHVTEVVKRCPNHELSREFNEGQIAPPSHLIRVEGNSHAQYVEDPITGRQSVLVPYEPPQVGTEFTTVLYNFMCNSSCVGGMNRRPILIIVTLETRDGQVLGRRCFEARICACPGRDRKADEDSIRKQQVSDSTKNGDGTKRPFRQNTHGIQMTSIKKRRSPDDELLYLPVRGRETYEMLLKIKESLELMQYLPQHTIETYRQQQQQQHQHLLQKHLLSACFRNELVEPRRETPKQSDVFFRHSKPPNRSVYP
Put plainly: cell_activity. Particulars: Saos-2 reporter, levels approaching 80% of p53.

On to “PG-13 β-galactosidase reporter (multiple copies of minimal p53 binding sequence)”, for which the activity was 80 % of p53.
